Test results from patent US7838495B2, “Compositions and methods of use of EPB1, and ErbB3 binding protein” (University of Maryland, Baltimore, priority 2007, dated 2010).

Test system: C81 cells
Test: RT-PCR, Western blot and ELISA in C81 EBP1 transfectants
Type: cell-based, human
Experimental: FIG. 5A-D. Expression of genes associated with androgen independence is decreased in C81 EBP1 transfectants. A. Lysates of logarithmically growing clones of C81 EBP1 transfectants (E1,2) or vector controls (V 1,2) were resolved by SDS-PAGE and immunoblotted for AR, BCL-2, BAD, FLAG, EBP1 and ACTIN as indicated. Representative of 3 experiments. B. Secreted PSA as measured by ELISA. EBP1 and vector control cells were plated at 1×10^6 cells/100 mm dish in complete media. Forty-eight hours later, conditioned media were collected and frozen. PSA activity was assessed by ELISA. Levels of PSA were adjusted to total cell number. Data is representative of 2 experiments. C. Validation of mRNA levels in EBP1 transfectants. Quantitative RT PCR was performed for the KALLIKREIN-2, AGR2 and TSPY genes in EBP1 and vector transfectants. The relative levels of all test mRNAs were normalized to β-ACTIN. Results are representative of 3 experiments using different sets of cells. D. Expression of AGR2 protein in vector and EBP1 C81 transfectants. Lysates of vector control (V) or EBP1 (E) transfected cells grown in complete media were resolved by SDS-PAGE and analyzed by Western blotting with antibody to AGR2.
Microarray Analysis and Bioinformatics. RNA was prepared using the Trizol Reagent as previously described (8). Microarray processing and data analysis was performed at Genome Explorations (Nashville, Tenn.). U133A oligonucleotide arrays (Affymetrix) containing ˜33,000 full length annotated genes together with additional probe sets designed to represent EST sequences were used for the analysis. Only genes with a minimum expression level of 500 were included in this analysis. […] Oncomine analyses were performed by using Oncomine 3.0 (www.oncomine.org). Real Time Quantitative Reverse-Transcription PCR. Both cell culture samples and a commercial panel of cDNAs from normal prostate and prostate tumors (TissueScan, Origene, Rockville, Md.) were examined. The method of Nakanishi et al. (15) was used as previously described. Real-time quantitative RT-PCR was performed on the LightCycler® (Roche) platform. The following forward and reverse primers were selected using Primer Express software and synthesized by the Core Laboratory of University of Maryland School of Medicine: Ebp1, sense: 5′-GCA CGC CAA TAG AAG G-3′ (SEQ ID NO: 16) and antisense: 5′-GTA AAC GGC ATG GCA TC-3′ (SEQ ID NO: 17) kallikrein-2 sense: 5′-CAT CCA GTC TCG GAT TG-3′ (SEQ ID NO: 18) and antisense: 5′-CTC ATA TTG TAG AGC GGG T-3′ (SEQ ID NO: 19), TSPY, sense: 5′-CAGGGCTTCTCATTCCACTC-3′ (SEQ ID NO: 20) and antisense: 5′-CCATCATATTCAACTCAACAA CTGG-3′ (16; SEQ ID NO: 21), AGR2, sense: 5′-ATTGGCAGAGCAGTTTCTCC-3′ (SEQ ID NO: 22) and antisense, 5′-GAGCTGTATCTGCAGGTTCGT (17; SEQ ID NO: 23) 13-Actin, sense: 5′-GCTATCCAGGCTGTGCTATC-3′ (SEQ ID NO: 24) and antisense 5′-TGT CAC GCA CGA TTT CC-3′ (SEQ ID NO: 25). A SYBR®Green PCR Kit was used as per the manufacturer's instructions (Applied Biosystems, Foster City, Calif.) and the analyses were performed in duplicate or triplicate.
Measurement of PSA levels. Serum PSA levels were determined using a PSA ELISA kit from DSL, Inc (Webster, Tex.) as previously described (9).
Western Blot Analysis. Western blot analysis was performed as previously described (19). The Ebp1 antibody was from Upstate (Lake Placid, N.Y.), the polyclonal antibody to actin from Sigma, the AKT and phospho AKT antibodies from Cell Signaling (Beverly, Mass.) and the AGR2 antibody was previously described (20) Cell Growth Assays Cell growth measurement in complete media was performed as described using a hemocytometer (21). For soft agar growth assays, increasing concentrations of cells (as indicated) were plated in 35 mm Petri dishes in 0.3% agar in complete media and colonies were counted after 10 days of incubation (21). […]

[1] = C81 EBP1 transfectants vs vector controls, real time RT-PCR
[2] = C81 clones transfected with FLAG-tagged EBP1, Western blot

B1: EBP1: ErbB3 binding protein (SEQ ID NO: 2), AR corepressor, here ectopically expressed in cancer cells by stable transfection of an expression plasmid (protein, listed as Homo sapiens)
chain: MSGEDEQQEQTIAEDLVVTKYKMGGDIANRVLRSLVEASSSGVSVLSLCEKGDAMIMEETGKIFKKEKEMKKGIAFPTSISVNNCVCHFSPLKSDQDYILKEGDLVKIDLGVHVDGFIANVAHTFVVDVAQGTQVTGRKADVIKAAHLCAEAALRLVKPGNQNTQVTEAWNKVAHSFNCTPIEGMLSHQLKQHVIDGEKTIIQNPTDQQKKDHEKAEFEVHEVYAVDVLVSSGEGKAKDAGQRTTIYKRDPSKQYGLKMKTSRAFFSEVERRFDAMPFTLRAFEDEKKARMGVVECAKHELLQPFNVLYEKEGEFVAQFKFTVLLMPNGPMRITSGPFEPDLYKSEMEVQDAELKALLQSSASRKTQKKKKKKASKTAENATSGETLEENEAGD
modifications: FLAG tag
Question: Which AGR2 protein (C81 EBP1 transfectants in complete media, Western blot) does the source give for B1 here?
Answer: Its AGR2 protein is “decreased”.

Question: What about the “decrease of secreted PSA protein levels” value (C81 EBP1 transfectants vs vector controls, ELISA) of the same molecule?
Answer: The value was 60%.

Question: What about the “AGR2 mRNA downregulation” value [1] of the same molecule?
Answer: The value was “over 90%”.

Question: What about the “Kallikrein-2 mRNA downregulation” value [1] of the same molecule?
Answer: Its value is “over 80%”.

Question: What about the “TSPY mRNA downregulation” value (C81 EBP1 transfectants, real time RT-PCR) of the same molecule?
Answer: The value was “over 90%”.

Question: And the AR protein level [2]?
Answer: The AR protein level was “markedly reduced”.

Question: What about the BAD protein level [2] of the same molecule?
Answer: Its BAD protein level is “remained the same as the vector controls”.

Question: And the Bcl2 protein level [2]?
Answer: The Bcl2 protein level was “markedly reduced”.
